Assay results published in patent publication US20140378537A1 (Genentech, published 2014).

T1: BATF/JunB heterodimer (murine, UniProt O35284 1-125; P09450 1-344)
T1 construct: Formed by mixing 293T nuclear extracts, or endogenous in Th17 nuclear extracts; also called BATF/JunB complex
T1 sequence (looked up) 1: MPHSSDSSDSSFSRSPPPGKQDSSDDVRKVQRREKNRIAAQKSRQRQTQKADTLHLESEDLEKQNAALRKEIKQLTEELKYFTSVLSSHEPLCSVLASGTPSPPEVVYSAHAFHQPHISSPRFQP
T1 sequence (looked up) 2: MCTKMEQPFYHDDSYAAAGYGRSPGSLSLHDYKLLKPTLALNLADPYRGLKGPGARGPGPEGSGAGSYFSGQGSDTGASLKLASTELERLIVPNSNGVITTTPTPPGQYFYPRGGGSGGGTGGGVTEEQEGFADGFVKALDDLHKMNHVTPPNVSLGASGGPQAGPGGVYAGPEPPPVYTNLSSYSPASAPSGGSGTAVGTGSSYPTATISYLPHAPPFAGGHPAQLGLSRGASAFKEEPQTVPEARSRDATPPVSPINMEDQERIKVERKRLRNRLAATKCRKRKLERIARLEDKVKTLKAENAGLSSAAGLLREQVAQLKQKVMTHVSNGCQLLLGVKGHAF

T2: His-tagged IRF4 (murine, UniProt Q64287 1-450)
T2 construct: not shown: His tag
T2 sequence: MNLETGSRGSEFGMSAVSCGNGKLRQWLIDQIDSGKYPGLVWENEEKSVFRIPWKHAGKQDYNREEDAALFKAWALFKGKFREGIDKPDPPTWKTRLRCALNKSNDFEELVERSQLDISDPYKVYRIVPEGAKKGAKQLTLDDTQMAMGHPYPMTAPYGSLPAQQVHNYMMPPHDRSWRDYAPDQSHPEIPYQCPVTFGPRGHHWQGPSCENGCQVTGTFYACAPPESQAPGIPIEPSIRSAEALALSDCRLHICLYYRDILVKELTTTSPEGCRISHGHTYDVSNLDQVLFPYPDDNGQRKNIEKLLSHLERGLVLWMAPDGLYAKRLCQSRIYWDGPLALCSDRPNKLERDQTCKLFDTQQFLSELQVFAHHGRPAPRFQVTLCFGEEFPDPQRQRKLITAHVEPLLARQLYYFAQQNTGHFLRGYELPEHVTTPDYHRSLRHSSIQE

T3: murine JunB (murine, UniProt P09450 1-344)
T3 construct: AP-1 family transcription factor, used as nuclear extract
T3 sequence (looked up): T1 sequence (looked up) 2

T4: JunB/FosL2 heterodimer (murine, UniProt P09450 1-344; P47930 1-326)
T4 construct: also called FosL2/JunB heterodimer
T4 sequence (looked up) 1: T1 sequence (looked up) 2
T4 sequence (looked up) 2: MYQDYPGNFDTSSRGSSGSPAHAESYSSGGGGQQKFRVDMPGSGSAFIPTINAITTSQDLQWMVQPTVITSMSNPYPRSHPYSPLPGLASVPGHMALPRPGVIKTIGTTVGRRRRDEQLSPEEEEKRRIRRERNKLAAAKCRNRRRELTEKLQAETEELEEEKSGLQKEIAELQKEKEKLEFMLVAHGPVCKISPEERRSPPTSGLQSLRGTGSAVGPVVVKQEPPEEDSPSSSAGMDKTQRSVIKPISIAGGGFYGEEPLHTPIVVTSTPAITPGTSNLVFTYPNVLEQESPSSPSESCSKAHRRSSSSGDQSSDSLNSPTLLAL

B1: murine IRF-3 (other, UniProt P70671 1-419, looked up)
chain: METPKPRILPWLVSQLDLGQLEGVAWLDESRTRFRIPWKHGLRQDAQMADFGIFQAWAEASGAYTPGKDKPDVSTWKRNFRSALNRKEVLRLAADNSKDPYDPHKVYEFVTPGARDFVHLGASPDTNGKSSLPHSQENLPKLFDGLILGPLKDEGSSDLAIVSDPSQQLPSPNVNNFLNPAPQENPLKQLLAEEQWEFEVTAFYRGRQVFQQTLFCPGGLRLVGSTADMTLPWQPVTLPDPEGFLTDKLVKEYVGQVLKGLGNGLALWQAGQCLWAQRLGHSHAFWALGEELLPDSGRGPDGEVHKDKDGAVFDLRPFVADLIAFMEGSGHSPRYTLWFCMGEMWPQDQPWVKRLVMVKVVPTCLKELLEMAREGGASSLKTVDLHISNSQPISLTSDQYKAYLQDLVEDMDFQATGNI
notes: Used as 293T nuclear extract
B2: Flag-tagged BATF (other, murine, UniProt O35284 1-125, looked up)
chain: T1 sequence (looked up) 1
notes: not shown: Flag tag
B3: murine BATF (other, UniProt O35284 1-125, looked up)
chain: T1 sequence (looked up) 1
notes: AP-1 family transcription factor, used as nuclear extract
B4: murine IRF-8 (other)
chain: MCDRNGGRRLRQWLIEQIDSSMYPGLIWENDEKTMFRIPWKHAGKQDYNQEVDASIFKAWAVFKGKFKEGDKAEPATWKTRLRCALNKSPDFEEVTDRSQLDISEPYKVYRIVPEEEQKCKLGVAPAGCMSEVPEMECGRSEIEELIKEPSVDEYMGMTKRSPSPPEACRSQILPDWWVQQPSAGLPLVTGYAAYDTHHSAFSQMVISFYYGGKLVGQATTTCLEGCRLSLSQPGLPKLYGPDGLEPVCFPTADTIPSERQRQVTRKLFGHLERGVLLHSNRKGVFVKRLCQGRVFCSGNAVVCKGRPNKLERDEVVQVFDTNQFIRELQQFYATQSRLPDSRVVLCFGEEFPDTVPLRSKLILVQVEQLYARQLVEEAGKSCGAGSLMPALEEPQPDQAFRMFPDICTSHQRPFFRENQQITV
notes: Expressed from a CMV vector encoding murine IRF-8 in 293T cells and used as nuclear extract; also called ICSBP
B5: murine IRF-4 (other)
chain: T2 sequence
notes: Transcription factor; Expressed from CMV vectors encoding murine IRF-4 in 293T cells and used as nuclear extract, or endogenous in mouse Th17 nuclear extracts; also called Pip

What was measured:
BATF/JunB heterodimer [1] = molecular target: T1, BATF/JunB heterodimer; assay: EMSA on Bcl11b AICE DNA probe, 293T nuclear extracts
Description: (§1) (a-d) EMSAs using the Bcl11b probe and 293T nuclear extracts as a source of indicated proteins (a) c-Jun, BATF, IRF-4, (b) FosL2, JunB, IRF-4, (c) JunB, BATF, IRF-8 or (d) JunB, BATF, IRF-3 (e) EMSA using an ISRE containing probe and IRF-3 or IRF-4. Complexes were supershifted with indicated antibodies. Red and green arrows mark the ternary and quaternary protein-DNA complexes, respectively as in FIG. 1d. Data are representative of at least two independent experiments. (f-h) Th0 cells and Th2 cells differentiated in vitro (42 hours) and LPS-activated dendritic cells (6 hours) were subjected to chromatin crosslinking and immunoprecipitation with antibodies directed against IRF-4. Immunoprecipitated chromatin was deep sequenced and analyzed as in FIG. 3a.
(§2) Nuclear extracts were prepared from 293T cells (2×107), 48 hours after their transfection or from Th17 cells (8×107), 42 hours after their activation and differentiation. […]

His-tagged IRF4 = molecular target: T2, His-tagged IRF4; assay: EMSA, 293T nuclear extracts, CTLA-4 and Bcl11b AICE DNA probes (DNA-dependent ternary complex)
Experimental: Positions of various protein/DNA complexes are indicated. Nuclear extracts were incubated with either the wild type Bcl11b or CTLA-4 probes or their indicated mutant counterparts in which either the IRF or AP-1 site or both were altered.
(§3) Nuclear extracts were prepared from 293T cells (2×107), 48 hours after their transfection or from Th17 cells (8×107), 42 hours after their activation and differentiation. Cells were incubated for 10 min in 1 ml of hypotonic buffer (10 mM Hepes pH7.6, 10 mM KCl, 0.1 mM EGTA, 1.5 mM MgCl, 1 mM DTT, 0.5 mM PMSF and the complete protease inhibitor mixture (Roche, #11697498001) and then lysed with the addition of 0.01% Triton-x-100. After centrifugation at maximum speed in an Eppendorf microfuge for 15 seconds the nuclear pellet was resuspended in 80 μl of the following buffer (420 mM NaCl, 20 mM Hepes pH7.9, 0.2 mM EDTA, 25% Glycerol, 1 mM DTT, 0.5 mM PMSF with complete protease inhibitor mixture). Nuclear proteins were extracted with intermittent vortexing and incubation for 15 minutes at […]. In-vitro binding assays were performed using reagents from the light-shift chemiluminescent EMSA kit (Thermo scientific) according to the manufacturer's protocol, with the exception of using FAMlabeled probes (Table 2, below). Protein-DNA complexes were resolved using 6%-TBE Gels (Invitrogen) at 100V and imaged with a Typhoon Trio Imager (Amersham Biosciences). […]

murine JunB = molecular target: T3, murine JunB; assay: EMSA supershift, Th17 nuclear extracts, IRF-site-mutated AICE probes
murine IRF-4 = molecular target: B5; assay: EMSA, Th17 nuclear extracts, Bcl11b and CTLA-4 probes
Experimental: as §3

BATF/JunB heterodimer [2] = molecular target: T1, BATF/JunB heterodimer; assay: EMSA, 293T nuclear extracts, AICE probes
Description: as §1, §2

murine BATF = molecular target: B3; assay: cell-based or functional assay
c-Jun/BATF heterodimer = molecular target: T5, c-Jun/BATF heterodimer (murine, UniProt P05627 1-334; O35284 1-125); assay: EMSA, 293T nuclear extracts, AICE probes
T5 construct: also called BATF/cJun
Description: as §1, §2

JunB/FosL2 heterodimer = molecular target: T4, JunB/FosL2 heterodimer; assay: EMSA on AICE DNA probes, 293T nuclear extracts
Description: as §1, §2

T5 sequence (P05627 whole entry, one chain of several): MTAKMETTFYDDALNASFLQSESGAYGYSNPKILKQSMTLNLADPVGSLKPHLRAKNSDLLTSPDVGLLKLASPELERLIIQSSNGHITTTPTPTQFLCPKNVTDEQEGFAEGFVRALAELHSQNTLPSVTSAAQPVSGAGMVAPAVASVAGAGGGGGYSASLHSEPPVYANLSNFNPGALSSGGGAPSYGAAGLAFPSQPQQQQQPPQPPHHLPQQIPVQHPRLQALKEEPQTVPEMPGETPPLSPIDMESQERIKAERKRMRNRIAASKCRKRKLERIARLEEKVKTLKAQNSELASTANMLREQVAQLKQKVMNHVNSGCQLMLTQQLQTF

Binder: B1
binding result (BATF/JunB heterodimer [1]): no binding

Binder: B2
binding result (His-tagged IRF4): binds

Binder: B3
binding result (murine JunB): binds
binding result (murine IRF-4): binds

Binder: B4
binding result (BATF/JunB heterodimer [2]): binds

Binder: B5
CTLA-4 levels (intracellular, flow cytometry) in T cells transduced with IRF4 and/or BATF retroviruses (murine BATF): 3 fold
ICOS levels (surface expression, flow cytometry) in Th0 cells transduced with IRF4 and/or BATF retroviruses (murine BATF): ~6 fold
frequency of IL-17A producing cells by intracellular flow cytometry (murine BATF): 2 fold
binding result (c-Jun/BATF heterodimer): binds
binding result (JunB/FosL2 heterodimer): no binding
